From article PMC5153404

Tests used:
[1] = target: Recombinant mature human gC1qR (residues 74-282) (UniProt Q07021); assay: ELISA; conditions: 2.5 μg/well gh protein, 90 min at 37°C and 90 min at 4°C, parent: est. 100, read off a plot
[2] = target: Recombinant mature human gC1qR (residues 74-282) (UniProt Q07021); assay: ELISA; gC1qR coated at 0.25, 0.5 and 1 μg/well; 2.5 μg/well of gh module or substitution mutant; 90 min at 37°C and 90 min at 4°C; detected with anti-MBP monoclonal antibody

Recombinant mature human gC1qR (residues 74-282), sequence (Q07021 74-282): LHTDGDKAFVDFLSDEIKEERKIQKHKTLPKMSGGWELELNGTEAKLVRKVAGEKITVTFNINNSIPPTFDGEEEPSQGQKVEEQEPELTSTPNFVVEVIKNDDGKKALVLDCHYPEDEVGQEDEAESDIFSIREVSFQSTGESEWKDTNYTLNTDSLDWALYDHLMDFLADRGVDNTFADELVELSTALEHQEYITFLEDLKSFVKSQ
Recombinant globular head module of the human C1q C chain (ghC), MBP fusion (from UniProt P02747) L170E, sequence (P02747 115-245, stated change not applied): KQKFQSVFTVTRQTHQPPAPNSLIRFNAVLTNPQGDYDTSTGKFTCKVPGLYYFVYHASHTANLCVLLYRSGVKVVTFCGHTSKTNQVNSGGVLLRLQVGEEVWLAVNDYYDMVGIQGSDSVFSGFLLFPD
Recombinant globular head module of the human C1q C chain (ghC), MBP fusion (from UniProt P02747) R156E, sequence (P02747 115-245, stated change not applied): as above
Recombinant globular head module of the human C1q B chain (ghB), MBP fusion (from UniProt P02746) R129A, sequence (P02746 117-253, stated change not applied): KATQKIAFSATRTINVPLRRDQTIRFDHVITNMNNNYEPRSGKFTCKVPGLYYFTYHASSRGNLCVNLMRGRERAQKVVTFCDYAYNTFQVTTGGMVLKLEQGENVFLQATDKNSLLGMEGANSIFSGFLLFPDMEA
Recombinant globular head module of the human C1q B chain (ghB), MBP fusion (from UniProt P02746) T175L, sequence (P02746 117-253, stated change not applied): as above
Recombinant globular head module of the human C1q C chain (ghC), MBP fusion (from UniProt P02747) H101A, sequence (P02747 115-245, stated change not applied): as the sequence (P02747 115-245, stated change not applied) above

Substance	percent of parent ([1]; 0.25 μg/well gC1qR coated) [% binding]	percent of parent ([1]; 0.5 μg/well gC1qR coated) [% binding]	percent of parent ([1]; 1 μg/well gC1qR coated) [% binding]	percent reduction in binding against wild-type ghA [2] [%]	percent reduction in binding against wild-type ghB [2] [%]
Recombinant globular head module of the human C1q B chain (ghB), MBP fusion (from UniProt P02746) R129A	27	33	30		
Recombinant globular head module of the human C1q B chain (ghB), MBP fusion (from UniProt P02746) T175L	62	56	68		
Recombinant globular head module of the human C1q C chain (ghC), MBP fusion (from UniProt P02747) H101A	51		79		
Recombinant globular head module of the human C1q C chain (ghC), MBP fusion (from UniProt P02747) L170E	62	91	100		
Recombinant globular head module of the human C1q C chain (ghC), MBP fusion (from UniProt P02747) R156E	81	110	110		
ghA-R162A, MBP fusion (from UniProt P02745 23-245) (domain or fragment)				< 70	
ghB-H117D, MBP fusion (from UniProt P02746 28-253) (domain or fragment)					60
